According to patent publication US20240100133:

System: Granzyme A wild type, recombinant human, His-tagged (GzmA-WT)
Sequence (chain, as listed by the source): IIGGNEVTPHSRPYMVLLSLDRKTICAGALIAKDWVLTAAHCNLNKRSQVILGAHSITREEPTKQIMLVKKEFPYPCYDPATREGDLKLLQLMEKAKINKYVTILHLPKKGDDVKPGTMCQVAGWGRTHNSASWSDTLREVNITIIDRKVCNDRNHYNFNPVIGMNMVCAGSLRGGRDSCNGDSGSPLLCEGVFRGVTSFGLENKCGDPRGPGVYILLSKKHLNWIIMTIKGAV

Chain of human recombinant PDIA1 (Protein Disulfide Isomerase A1, residues 18-479, N-terminal His-tag) (chain, as listed by the source): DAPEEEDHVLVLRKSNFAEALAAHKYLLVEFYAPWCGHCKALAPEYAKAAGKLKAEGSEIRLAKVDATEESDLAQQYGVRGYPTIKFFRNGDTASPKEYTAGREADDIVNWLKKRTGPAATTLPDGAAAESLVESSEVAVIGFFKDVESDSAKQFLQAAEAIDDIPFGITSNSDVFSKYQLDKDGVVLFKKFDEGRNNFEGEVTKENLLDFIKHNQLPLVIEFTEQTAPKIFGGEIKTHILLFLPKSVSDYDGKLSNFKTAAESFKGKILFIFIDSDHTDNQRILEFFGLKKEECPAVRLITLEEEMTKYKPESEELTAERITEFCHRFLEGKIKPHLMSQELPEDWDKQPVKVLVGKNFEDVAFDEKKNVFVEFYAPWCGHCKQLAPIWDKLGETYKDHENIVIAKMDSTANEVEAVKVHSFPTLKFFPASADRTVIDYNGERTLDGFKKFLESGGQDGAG

human recombinant PDIA1 (Protein Disulfide Isomerase A1, residues 18-479, N-terminal His-tag)
conversion of GzmA homodimer into the 27 kDa monomer (silver stain and anti-GzmA western blot): they incubated GzmA-WT with PDIA1 and observed the monomeric band at 27 KDa, which was not present when heat-inactivated PDIA1 was used
